From PMC5615345 (2017)

Key:
[1] = molecular target: T1, Methanocaldococcus jannaschii RecJ2 (MJ0831) (Methanocaldococcus jannaschii (strain …, UniProt Q58241)); assay: Ni-NTA pulldown (co-purification)
T1 chain: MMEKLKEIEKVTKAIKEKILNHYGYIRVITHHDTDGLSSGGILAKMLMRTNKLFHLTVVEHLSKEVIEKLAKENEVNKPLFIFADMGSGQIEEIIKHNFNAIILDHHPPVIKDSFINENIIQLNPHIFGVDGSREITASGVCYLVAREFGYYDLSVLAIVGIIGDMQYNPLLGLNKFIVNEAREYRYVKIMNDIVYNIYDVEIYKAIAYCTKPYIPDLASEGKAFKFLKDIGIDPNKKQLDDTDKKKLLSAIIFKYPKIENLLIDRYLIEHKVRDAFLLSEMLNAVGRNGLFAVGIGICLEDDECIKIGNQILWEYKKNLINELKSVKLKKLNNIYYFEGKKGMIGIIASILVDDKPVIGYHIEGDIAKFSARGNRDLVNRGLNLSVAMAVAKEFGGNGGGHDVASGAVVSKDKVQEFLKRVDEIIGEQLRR

[2] = molecular target: T1, Methanocaldococcus jannaschii RecJ2 …; assay: gel filtration (Superdex 200); MST also negative

B1: Methanocaldococcus jannaschii GINS (MJ0248), 6×His tag and sumo domain removed (protein)
chain: MRVFIIIIYFRCFSKDHKPYFVITMYESLKNYFFEEIKNDKLLKLPDDFYDDIREYIKNIKDDIELERVKYYFKELRKLRIYKALYLDNERENLLPEELNIIHAIENIVVELKIEETPEFKKPTEIDTPKPIYTINDIDVVKVDKNFPPFTDGTFIYDLNKNDVLSLDRKISHILEKHRIISRIGESYENPEES
binding result [1]: no binding

B2: Methanocaldococcus jannaschii GINS (MJ0248), tag state not stated (protein)
chain: MRVFIIIIYFRCFSKDHKPYFVITMYESLKNYFFEEIKNDKLLKLPDDFYDDIREYIKNIKDDIELERVKYYFKELRKLRIYKALYLDNERENLLPEELNIIHAIENIVVELKIEETPEFKKPTEIDTPKPIYTINDIDVVKVDKNFPPFTDGTFIYDLNKNDVLSLDRKISHILEKHRIISRIGESYENPEES
binding result [2]: no binding
